Values quoted from earlier work in PMC9256959.
pKd: −log10 of the molar value.

Molecular target: AMH mature ligand mature domain (Homo sapiens) (UniProt P03971)

In the case of “AMH prodomain prodomain (from UniProt P03971)”, the pKd is listed as 12.40.
